B1: M0042-B07: Fab that binds human MMP-14; DNA LV SEQ ID NO: 122, HV SEQ ID NO: 123 (antibody, V domains shown)
VL: QDIQMTQSPLSLPVTPGEPASISCRSSQSLLHSNGYNYLDWYVQKPGQSPQLLIYLGSGRASGVPDRFSGSGSGTDFTLKINRVEAEDVGVYYCMQALQTPWTFGQGTKVEIK
VH: EVQLLESGGGLVQPGGSLRLSCAASGFTFSPYSMFWVRQAPGKGLEWVSVIYPSGGGTIYADSVKGRFTISRDNSKNTLYLQMNSLRAEDTAVYYCARSRESCDADTCYQYFQEWGQGTLVTVSS
modifications: Synthetically generated oligonucleotide
B2: M0041-H11: Fab that binds human MMP-14; DNA LV SEQ ID NO: 120, HV SEQ ID NO: 121 (antibody, V domains shown)
VL: QSELTQDPAVSVALGQTVRITCQGDSLRSYYASWYQQKPGQAPVLVIYGKNNRPSGIPDRFSGSSSGNTASLTITGAQAEDEADYYCNSRDSSGNHVVFGGGTKLTVL
VH: EVQLLESGGGLVQPGGSLRLSCAASGFTFSMYPMNWVRQAPGKGLEWVSSISSSGGWTKYADSVKGRFTISRDNSKNTLYLQMNSLRAEDTAVYYCARVFFGYDSSGYPYYYYGMDVWGQGTTVTVSS
modifications: Synthetically generated oligonucleotide
B3: M0043-C03: Fab that binds human MMP-14; DNA LV SEQ ID NO: 128, HV SEQ ID NO: 129 (antibody, V domains shown)
VL: QDIQMTQSPASLYLSPGERATLSCRASQSVSSNLAWYQQKPGQAPRLLIYGASTRATGIPARFSGSGSGTEFTLTISSLQSADFAVYYCQQYDNWPPLTFGGGTKVEIK
VH: EVQLLESGGGLVQPGGSLRLSCAASGFTFSYYAMDWVRQAPGKGLEWVSSIGSSGGDTVYADSVKGRFTISRDNSKNTLYLQMNSLRAEDTATYYCARDPRQPGVFDYWGQGTLVTVSS
modifications: Synthetically generated oligonucleotide
B4: M0041-E11: Fab that binds human MMP-14; DNA LV SEQ ID NO: 116, HV SEQ ID NO: 117 (protein)
chain 1: QDIQMTQSPSSLSAFVGDRVIITCRASQDISVYVNWYQQSSGKAPKLLIYGASSLQSGVPSRFSGSGSGTDFTLTISSLQPEDFASYFCQQSYNLPFTFGGGTNVQIK
chain 2: EVQLLESGGGLVQPGGSLRLSCAASGFTFSQYNMQWVRQAPGKGLEWVSGIVPSGGWTPYADSVKGRFTISRDNSKNTLYLQMNSLRAEDTAVYYCARGVRYGLDYWGQGTLVTVSS
modifications: Synthetically generated oligonucleotide
B5: M0041-H09: Fab that binds human MMP-14; DNA LV SEQ ID NO: 118, HV SEQ ID NO: 119 (antibody, V domains shown)
VL: QDIQMTQSPGTLSLSPGERATLSCRASQSLSGDYLAWYQQKIGQAPRLLIFGASRRPTGIPDRFSGSGSGTDFALTISRLEPEDFAVYYCQQYGSLITFGQGTRLEIK
VH: EVQLLESGGGLVQPGGSLRLSCAASGFTFSVYEMTWVRQAPGKGLEWVSGIGSSGGMTFYADSVKGRFTISRDNSKNTLYLQMNSLRAEDTAVYYCARIRYSGSYGWHYMDVWGKGTTVTVSS
modifications: Synthetically generated oligonucleotide
B6: M0043-A09: Fab that binds human MMP-14; DNA LV SEQ ID NO: 126, HV SEQ ID NO: 127 (antibody, V domains shown)
VL: QSVLTQPPSVSKDLRQTATLTCTGNSNNVGYQGAAWLQQHQGHPPKVLSYRNNNRPSGISERFSASRSGNTASLTITGLQPEDEADYYCSAWDSSLTAWVFGGGTKLTVL
VH: EVQLLESGGGLVQPGGSLRLSCAASGFTFSFYDMTWVRQAPGKGLEWVSSIWSSGGVTDYADSVKGRFTISRDNSKNTLYLQMNSLRAEDTAVYYCTRASSGYYDAFDIWGQGTMVTVSS
modifications: Synthetically generated oligonucleotide

The experiment addresses MMP-14 (Homo sapiens, UniProt P50281). Put plainly: Selection and phage ELISA screening of anti-MMP-14 Fabs. In kind it is binding. The conditions noted are these: Fab from FAB310 phage display library. The method, boiled down: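 Phage ELISA screened 95 clones from each of rounds 2 and 3 against biotinylated MMP-14 (1 μg/ml) captured on streptavidin, in TRIS/CaCl2/NaCl pH 7.5. The clones came from Fab library selections on biotinylated MMP-14, either free or TIMP-2-complexed (500 nM round 1, 100 nM later rounds). Elution used 2.5 μM TIMP-2 followed by TEA.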
For B1, the “bind to human MMP-14” value is listed as “bind to human MMP-14”.
The result for B2 reads “bind to human MMP-14”; that for B3, “bind to human MMP-14”.
The result for B4 reads “bind to human MMP-14”; that for B5, “bind to human MMP-14”.
Then B6, with “bind to human MMP-14”.
